Results: PMC3594540

Assays:
Gαq D296A P298D (murine) = Gαq D296A P298D (murine) (UniProt P21279); assay: flow cytometry protein interaction assay
Gαq K311A (murine) = Gαq K311A (murine) (UniProt P21279); assay: flow cytometry protein interaction assay
Gαq-ΔN (murine) = Gαq-ΔN (murine) (UniProt P21279); assay: flow cytometry protein interaction assay
[1] = target: murine Gαq (residues 7–359), biotinylated for bead binding (murine) (UniProt P21279); assay: flow cytometry protein interaction assay
Chain of murine Gαq (residues 7–359), biotinylated for bead binding (murine) (P21279 7-359): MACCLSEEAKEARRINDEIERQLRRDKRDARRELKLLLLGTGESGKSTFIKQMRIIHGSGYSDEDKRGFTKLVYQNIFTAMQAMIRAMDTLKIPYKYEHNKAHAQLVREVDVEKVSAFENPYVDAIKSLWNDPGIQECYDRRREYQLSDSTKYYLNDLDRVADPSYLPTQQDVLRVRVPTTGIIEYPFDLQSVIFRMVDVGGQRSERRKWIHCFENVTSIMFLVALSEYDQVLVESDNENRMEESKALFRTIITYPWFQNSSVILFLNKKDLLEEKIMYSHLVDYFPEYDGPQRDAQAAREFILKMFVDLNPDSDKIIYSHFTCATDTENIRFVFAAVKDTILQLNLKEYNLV

PLCβ3-Δ892 (human) = PLCβ3-Δ892 (human) (UniProt Q01970)
PLCβ3-Δ892 T652E (human) = PLCβ3-Δ892 T652E (human) (UniProt Q01970)

Chain of Gαq K311A (murine) (P21279 7-359 K311A): as the sequence (P21279 7-359) above, with K305A counted along it
Chain of Gαq-ΔN (murine) (P21279 37-359, stated change not applied): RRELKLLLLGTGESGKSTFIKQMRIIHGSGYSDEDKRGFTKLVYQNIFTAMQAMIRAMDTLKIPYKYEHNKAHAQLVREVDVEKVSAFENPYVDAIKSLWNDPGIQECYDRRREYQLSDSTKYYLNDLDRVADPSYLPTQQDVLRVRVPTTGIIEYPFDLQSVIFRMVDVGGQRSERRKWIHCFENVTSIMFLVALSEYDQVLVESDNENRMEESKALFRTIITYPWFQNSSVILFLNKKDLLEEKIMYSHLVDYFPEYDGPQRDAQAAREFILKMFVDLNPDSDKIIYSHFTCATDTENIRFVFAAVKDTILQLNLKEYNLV
Chain of Gαq D296A P298D (murine) (P21279 7-359 D296A/P298D): as the sequence (P21279 7-359) above, with D290A, P292D counted along it
Chain of murine Gαq (residues 7–359), biotinylated for bead binding (P21279 7-359): as the sequence (P21279 7-359) above
Chain of Gαq-ΔN (P21279 37-359, stated change not applied): as the sequence (P21279 37-359, stated change not applied) above

| Ki [1] [µM] | EC50 of Gαq-stimulated PIP2 hydrolysis ([3H]-IP3 release from liposomes) (PLCβ3-Δ892 (human)) [µM] | Substance | further results |
| --- | --- | --- | --- |
| 0.49 |  | PLCβ3-Δ892 (from UniProt Q01970 10-892) (domain or fragment) | Ki (Gαq D296A P298D (murine)): 0.42 µM; Ki (Gαq K311A (murine)): 0.38 µM; Ki (Gαq-ΔN (murine)): 0.49 µM |
|  | 0.059 | Gαq-ΔN (from UniProt P21279 37-359) (domain or fragment) |  |
|  |  | AF488-labeled PLCβ3-Δ892 R872A L876A L879A (from UniProt Q01970 10-892) (domain or fragment) | Kd [1]: 0.04 µM |
| 0.16 |  | PLCβ3 T652E (from UniProt Q01970) (enzyme) |  |
|  | 0.15 | Gαq K311A (from UniProt P21279 7-359) (natural protein) |  |
| 0.02 |  | PLCβ3 L876A (from UniProt Q01970 10-1234) (enzyme) | Ki (Gαq D296A P298D (murine)): 0.012 µM; Ki (Gαq K311A (murine)): 0.016 µM; Ki (Gαq-ΔN (murine)): 0.024 µM |
|  | 0.059 | murine Gαq (residues 7–359), biotinylated for bead binding (from UniProt P21279 7-359) (natural protein) | EC50 of Gαq-stimulated PIP2 hydrolysis ([3H]-IP3 release from liposomes) (PLCβ3-Δ892 T652E (human)): 0.25 µM |
|  |  | human PLCβ3 (residues 10–1234) (from UniProt Q01970 10-1234) (enzyme) | Ki (Gαq K311A (murine)): 0.26 µM |
| 0.012 |  | PLCβ3-Δ882-937 L876A (from UniProt Q01970 10-1234) (enzyme) |  |
| 0.23 |  | PLCβ3-Δ882-937 (from UniProt Q01970 10-1234) (enzyme) |  |
| 0.25 |  | PLCβ3-Δ892 T652E (from UniProt Q01970 10-892) (domain or fragment) |  |
|  | 0.15 | Gαq C9S C10S (from UniProt P21279 7-359) (natural protein) |  |
|  | 0.54 | Gαq D296A P298D (from UniProt P21279 7-359) (natural protein) |  |

| Substance | Ki [1] [µM] | EC50 of Gαq-stimulated PIP2 hydrolysis ([3H]-IP3 release from liposomes) (PLCβ3-Δ892 (human)) [µM] | further results |
| --- | --- | --- | --- |
| PLCβ3 I1129E V1133E I1136E triple mutant (from UniProt Q01970) (enzyme) | 0.093 |  | Ki (Gαq-ΔN (murine)): 0.078 µM |
| PLCβ3 L876A EEE (from UniProt Q01970) (enzyme) | 0.026 |  | Ki (Gαq-ΔN (murine)): 0.042 µM |
